Measured values published in article doi:10.1101/491043.

Target: M. tuberculosis ClpX (M. tuberculosis) (UniProt P9WPB9)
Assay: SPR

Substance | Kd | fold reduction in binding against σ^D/RsdA
σ^D/RsdA complex (from UniProt P9WGG8;H8EZ77) | 0.0145 µM | 
σ^K/RskA complex (from UniProt A5TZH1;A5TZH0) | 0.164 µM | 
σ^L/RslA complex (from UniProt H8EXN1;H8EXN2) |  | 10 fold
σ^M/RsmA complex | 0.133 µM | 
